# From paper PMC5802732, “A chiral selectivity relaxed paralog of DTD for proofreading tRNA mischarging in Animalia” (Nature Communications, 2018)
# Target: the molecule itself
# Assay: crystal structure; un-tagged MmATD alone; sitting-drop vapor diffusion, reservoir 0.1 M Bicine (pH 8.0) and 15% PEG1500; 1.86 Å; two monomers per asymmetric unit
protein,measurement,value
"Animalia-specific tRNA deacylase from Mus musculus (enzyme, ATD (Animalia-specific tRNA deacylase, annotated in databases as probable DTD2) from Mus musculus; un-tagged protein used for crystallisation; gene PCR-amplified from cDNA into pET-28b; Homodimer in the crystal (two monomers per asymmetric unit, 325 residues modelled); also called MmATD; ATD; source: E. coli Rosetta(DE3), purified (cation exchange chromatography, SEC)) MADGGRVAQARALLQQCLHARLQVRPADGDAAAQWVEIRRGLVIYVCFFKGADTDLLPKMVNTLLNVKLSETETGKHVSILDLPGDVLIIPQATLGGRVKGRSMQYHSNSGKEEGSELYSQFVSLCEKAVANNTKSVEAGVAVAHGTYGNRQVLKLDTNGPYTHLIEF",binding result,binds
